Tests used:
Experiment in all cases: cell-based or functional assay
[1] = molecular target: Env of the HIV-1 pseudotyped virus Bal26 (clade B, Tier 1) (HIV-1 (clade B, Bal26))
[2] = molecular target: Env of the HIV-1 pseudotyped virus SF162S (clade B, Tier 1) (HIV-1 (clade B, SF162S))
[3] = molecular target: Env of the HIV-1 pseudotyped virus Q23Env17 (clade A, Tier 1) (HIV-1 (clade A, Q23Env17))

B1: HIV-1 Env-Fab (Fab generated from the VRC01 antibody by pHIV-1 Env Fab) (Fab, V domains shown)
VH: QVQLVQSGGQMKKPGESMRISCRASGYEFIDCTLNWIRLAPGKRPEWMGWLKPRGGAVNYARPLQGRVTMTRDVYSDTAFLELRSLTVDDTAVYFCTRGKNCDYNWDFEHWGRGTPVIVSS
VL: QIVLTQSPGTLSLSPGETAIISCRTSQYGSLAWYQQRPGQAPRLVIYSGSTRAAGIPDRFSGSRWGPDYNLTISNLESGDFGVYYCQQYEFFGQGTKVQVDI
[1]
  plateau percent neutralization (TZM-Bl luciferase assay, serum 1:50): ~62%
[2]
  plateau percent neutralization (TZM-Bl luciferase assay, serum 1:50): ~70%
[3]
  plateau percent neutralization (TZM-Bl luciferase assay, serum 1:50): ~60%

Source: patent US20180346554A1 (University of Pennsylvania, published 2018)
